In patent publication US20150147274A1 (CANCER RESEARCH TECHNOLOGY, published 2015):
Where a chain is given by its changes, count along the chain named. Each block holds one binder with its values, some of them ahead of it.

Target: T1, MET928 (cMET protein derived from construct 25-928) (human, UniProt P08581 25-928)
T1 construct: MET ectodomain, residues 1-24 are the leader; produced in Lec 8 cells; background text says the ectodomain is furin-cleaved into alpha (25-307) and beta chains; biotinylated form used in selections; also called MET928 extracellular domain; Met extracellular domain
T1 sequence (P08581 25-928): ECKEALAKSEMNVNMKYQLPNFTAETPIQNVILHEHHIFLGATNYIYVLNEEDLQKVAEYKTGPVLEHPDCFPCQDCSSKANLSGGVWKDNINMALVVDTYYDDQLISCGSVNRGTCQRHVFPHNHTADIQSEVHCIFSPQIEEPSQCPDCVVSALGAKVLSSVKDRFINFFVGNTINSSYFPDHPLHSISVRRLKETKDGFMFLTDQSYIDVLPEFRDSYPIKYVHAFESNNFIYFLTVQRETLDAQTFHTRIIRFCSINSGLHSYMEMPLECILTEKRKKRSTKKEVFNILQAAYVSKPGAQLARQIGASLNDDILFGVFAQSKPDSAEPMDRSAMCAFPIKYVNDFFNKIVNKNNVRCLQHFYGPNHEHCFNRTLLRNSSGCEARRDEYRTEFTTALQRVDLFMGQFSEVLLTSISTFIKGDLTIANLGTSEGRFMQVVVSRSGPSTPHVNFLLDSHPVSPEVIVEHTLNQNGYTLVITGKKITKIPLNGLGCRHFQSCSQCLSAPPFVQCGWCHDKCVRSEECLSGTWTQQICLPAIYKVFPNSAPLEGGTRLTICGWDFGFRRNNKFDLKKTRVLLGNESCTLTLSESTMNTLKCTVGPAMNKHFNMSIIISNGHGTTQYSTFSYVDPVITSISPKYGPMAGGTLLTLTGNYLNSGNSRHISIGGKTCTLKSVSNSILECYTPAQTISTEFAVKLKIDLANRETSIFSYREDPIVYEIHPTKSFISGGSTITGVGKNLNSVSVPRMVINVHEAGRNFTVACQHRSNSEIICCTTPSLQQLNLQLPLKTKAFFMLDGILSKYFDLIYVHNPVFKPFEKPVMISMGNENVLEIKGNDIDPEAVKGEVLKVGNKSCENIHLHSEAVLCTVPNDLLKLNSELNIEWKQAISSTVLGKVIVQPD
Experiment: ELISA, soluble scFv

- binding result: binds
B40: 108_D7 (scFv)
scFv: QMQLVQSGAEVKKPGAPVKVSCKVSGYTFTDYYMHWVQQAPGKGLEWMGLVDPEDGETIYAEKFQGRVTITADTSTDTAYMELSSLRSEDTAVYYCATDATTPYWGMDMWGQGTLVTVSSLEGGGGSGGGGSGGGASDIQMTQSPSSLSASVGDRVTITCQASQDISNYLNWYQQKPGRAPKVLIYDASNLETGVPSRFSGSGSGTEFTLTISNLRPDDFATYYCQQGDSFPLTFGGGTKVEIK
notes: not shown: 6xHis/tri-FLAG tags

- binding result: binds
B41: 108_F3 (scFv)
scFv: B40 scFv with D108A, M109K
notes: as for B40

- binding result: binds
B42: 108_C12 (scFv)
scFv: B40 scFv with D108A, M109S
notes: as for B40

- binding result: binds
B43: 107_B4 (scFv)
scFv: B40 scFv with G106F, M107P, D108N, M109V
notes: as for B40

- binding result: binds
B44: 108_D9 (scFv)
scFv: B40 scFv with G106Y, M107P, D108Y, M109V
notes: as for B40

- binding result: binds
B45: 107_A10 (scFv)
scFv: B40 scFv with D108Q, M109E
notes: as for B40

- binding result: binds
B46: 108_E4 (scFv)
scFv: B40 scFv with D108I, M109W
notes: as for B40

- binding result: binds
B47: 107_A9 (scFv)
scFv: B40 scFv with D108M, M109T
notes: as for B40

- binding result: binds
B48: 107_B11 (scFv)
scFv: B40 scFv with D108A
notes: as for B40

- binding result: binds
B49: 107_B5 (scFv)
scFv: B40 scFv with D108Q, M109I
notes: as for B40

- binding result: binds
B50: 107_B6 (scFv)
scFv: B40 scFv with D108Q, M109K
notes: as for B40

- binding result: binds
B51: 107_B1 (scFv)
scFv: B40 scFv with T102H, P103I, G106N, M109I
notes: as for B40

- binding result: binds
B52: 107_A12 (scFv)
scFv: B40 scFv with G106W, D108A, M109K
notes: as for B40

- binding result: binds
B53: 107_A6 (scFv)
scFv: B40 scFv with G106T, M107P, D108F, M109V
notes: as for B40

- binding result: binds
B54: 108_D2 (scFv)
scFv: B40 scFv with G106A, M107P, D108W, M109V
notes: as for B40

- binding result: binds
B55: 108_D3 (scFv)
scFv: B40 scFv with G106F, M107P, D108Y, M109V
notes: as for B40

- binding result: binds
B56: 108_D11 (scFv)
scFv: B40 scFv with M107A, D108A, M109A
notes: as for B40

- binding result: binds
B57: 107_C6 (scFv)
scFv: B40 scFv with D108S, M109V
notes: as for B40

- binding result: binds
B58: 108_C8 (scFv)
scFv: B40 scFv with G106F, M107P, D108Y, M109I
notes: as for B40

The remaining lines, values behind:

B1: 112_H2 (scFv)
scFv: B40 scFv with D108Q, M109V
notes: as for B40
- binding result: binds

B2: 107_A3 (scFv)
scFv: B40 scFv with P103A, D108Q, M109K
notes: as for B40
- binding result: binds

B3: 108_F6 (scFv)
scFv: B40 scFv with W105C, G106C, M107T, D108I, M109E
notes: as for B40
- binding result: binds

B4: 107_B7 (scFv)
scFv: B40 scFv with G106C, D108R, M109A
notes: as for B40
- binding result: binds

B5: 108_G3 (scFv)
scFv: B40 scFv with G106A, M107P, D108W, M109R
notes: as for B40
- binding result: binds

B6: 107_A11 (scFv)
scFv: B40 scFv with D108A, M109W
notes: as for B40
- binding result: binds

B7: 108_D10 (scFv)
scFv: B40 scFv with D108S, M109H
notes: as for B40
- binding result: binds

B8: 107_A2 (scFv)
scFv: B40 scFv with D108Q, M109S
notes: as for B40
- binding result: binds

B9: 108_G6 (scFv)
scFv: B40 scFv with G106F, M107P, D108V, M109W
notes: as for B40
- binding result: binds

B10: 107_A4 (scFv)
scFv: B40 scFv with G106F, M107P, D108Y, M109H
notes: as for B40
- binding result: binds

B11: 108_C11 (scFv)
scFv: B40 scFv with G106F, M107P, D108I, M109I
notes: as for B40
- binding result: binds

B12: 108_E8 (scFv)
scFv: B40 scFv with G106W, D108Q, M109K
notes: as for B40
- binding result: binds

B13: 108_E5 (scFv)
scFv: B40 scFv with D108W, M109I
notes: as for B40
- binding result: binds

B14: 108_E1 (scFv)
scFv: B40 scFv with G106F, M107P, D108L, M109V
notes: as for B40
- binding result: binds

B15: 108_D4 (scFv)
scFv: B40 scFv with D108S, M109G
notes: as for B40
- binding result: binds

B16: 107_B8 (scFv)
scFv: B40 scFv with D108A, M109E
notes: as for B40
- binding result: binds

B17: 107_C4 (scFv)
scFv: B40 scFv with G106S, M107P, D108W
notes: as for B40
- binding result: binds

B18: 109 H2 (scFv)
scFv: B40 scFv with D108W, M109E
notes: as for B40
- binding result: binds

B19: 108_F11 (scFv)
scFv: B40 scFv with A100G, T101S, T102N, P103L, Y104S, G106Q, M109V
notes: as for B40
- binding result: binds

B20: 108_E12 (scFv)
scFv: B40 scFv with G106L, M107A, D108A, M109E
notes: as for B40
- binding result: binds

B21: 108_D5 (scFv)
scFv: B40 scFv with G106S, M107P, D108H, M109T
notes: as for B40
- binding result: binds

B22: 107_C2 (scFv)
scFv: B40 scFv with D108V, M109K
notes: as for B40
- binding result: binds

B23: 108_E11 (scFv)
scFv: B40 scFv with W105C, G106S, M107R, D108T, M109S
notes: as for B40
- binding result: binds

B24: 108_G5 (scFv)
scFv: B40 scFv with G106W, D108Q, M109S
notes: as for B40
- binding result: binds

B25: 107_B3 (scFv)
scFv: B40 scFv with D108K
notes: as for B40
- binding result: binds

B26: 107_A5 (scFv)
scFv: B40 scFv with D108S, M109K
notes: as for B40
- binding result: binds

B27: 107_B10 (scFv)
scFv: B40 scFv with D108R, M109V
notes: as for B40
- binding result: binds

B28: 107_B2 (scFv)
scFv: B40 scFv with D108Q
notes: as for B40
- binding result: binds

B29: 108_F2 (scFv)
scFv: B40 scFv with D108S, M109S
notes: as for B40
- binding result: binds

B30: 108_E7 (scFv)
scFv: B40 scFv with D108W, M109R
notes: as for B40
- binding result: binds

B31: 108_E10 (scFv)
scFv: B40 scFv with G106F, M107P, D108W, M109V
notes: as for B40
- binding result: binds

B32: 107_B12 (scFv)
scFv: B40 scFv with D108T, M109A
notes: as for B40
- binding result: binds

B33: 108_D1 (scFv)
scFv: B40 scFv with G106T, M107P, D108W, M109K
notes: as for B40
- binding result: binds

B34: 108_G1 (scFv)
scFv: B40 scFv with G106F, M107P, D108R
notes: as for B40
- binding result: binds

B35: 107_C5 (scFv)
scFv: B40 scFv with G106Y, M107P, D108I, M109V
notes: as for B40
- binding result: binds

B36: 109_G8 (scFv)
scFv: B40 scFv with D108A, M109T
notes: as for B40
- binding result: binds

B37: 107_C1 (scFv)
scFv: B40 scFv with D108S
notes: as for B40
- binding result: binds

B38: 108 E2 (scFv)
scFv: B40 scFv with G106T, M107P, D108W, M109V
notes: as for B40
- binding result: binds

B39: 108_D12 (scFv)
scFv: B40 scFv with G106T, M107P, D108Y, M109V
notes: as for B40
- binding result: binds
